In article PMC6811539, “Minute-scale persistence of a GPCR conformation state triggered by non-cognate G protein interactions primes signaling” (Nature Communications, 2019):

Biological target: β2-AR of the β2-AR-Sp SPASM sensor (human) (UniProt P07550)

Sp (Gαs C terminus peptide) gave a critical concentration (CC) of unlabeled peptide for enhanced isoproterenol-stimulated ΔFRET of the β2-AR-Sp sensor in native membranes (peptide 100 nM to 100 μM) of 1.5 µM.
